Key:
EAE in Lewis rats [1] = experiment: Treatment of ongoing EAE after disease onset; format: in vivo
EAE in Lewis rats [2] = experiment: Prevention of EAE by pretreatment before encephalitogenic challenge; format: in vivo
[3] = Table 6 Experiment 1, s.c. day 9 (1 nmole), day 10 (1 nmole), day 12 (0.5 nmole) after DHFR-NAg in CFA day 0
[4] = Table 6 Experiment 2, 1 nmole s.c. on days 9, 10, 12, and 14 after DHFR-NAg in CFA day 0
[5] = Table 6 Experiments 1 & 2 compiled, treatment from day 9 after onset
[6] = Table 7 Experiment 1, 1 nmole s.c. days 10, 11, and 13, severe EAE = scores from 1.0 to 3.0
[7] = Table 7 Experiment 1, 1 nmole s.c. in saline days 10, 11, and 13, IFNβ + NAg as mixture
[8] = Table 7 Experiment 2, 1 nmole s.c. days 9, 10, 12, and 14, severe EAE = scores from 1.0 to 3.0
[9] = Table 7 Experiment 2, 1 nmole s.c. in saline days 9, 10, 12, and 14, IFNβ + NAg as mixture
[10] = Table 7 Experiment 3, 1 nmole s.c. days 9, 10, and 12, severe EAE = scores from 1.0 to 3.0
[11] = Table 7 Experiment 3, 1 nmole s.c. in saline days 9, 10, and 12, IFNβ + NAg as mixture
[12] = Table 7 Experiments 1-3 compiled, 1 nmole s.c. after onset
[13] = Table 7 Experiments 1-3 compiled, severe EAE = scores from 1.0 to 3.0
[14] = Table 3, baculovirus-derived, 1 nmole s.c. days −21, −14, −7, challenge day 0, severe = EP or P
[15] = Table 3, baculovirus-derived, 1 nmole s.c. in saline days −21, −14, −7, challenge 50 ug DHFR-NAg in CFA day 0
[16] = Table 4 Exp. 1 & 2 combined, HEK293-derived, 1 nmole days −21, −14, −7, challenge day 0
[17] = Table 4 Exp. 1, HEK293-derived, 1 nmole in saline days −21, −14, −7, challenge DHFR-NAg in CFA day 0
[18] = Table 4 Exp. 2, HEK293-derived, 1 nmole in saline days −21, −14, −7, challenge DHFR-NAg in CFA day 0
[19] = Table 5 Exp 1-2 compiled, 1 nmole s.c. days −21, −14, −7 (IFNβ + NAg: separate injections), challenge day 0
[20] = Table 5 Exp 1, 1 nmole s.c. in saline days −21, −14, −7 (IFNβ + NAg: separate injections <0.5 cm apart), challenge DHFR-NAg in CFA day 0
[21] = Table 5 Exp 2, 1 nmole s.c. in saline days −21, −14, −7 (IFNβ + NAg: separate injections <0.5 cm apart), challenge DHFR-NAg in CFA day 0

B1: IFNβ-NAg: Fusion protein: rat IFNβ, enterokinase linker (GDDDDKG), encephalitogenic 73-87 peptide of guinea pig MBP, C-terminal 6-histidine tag (protein)
chain: IDYKQLQFRQSTSIRTCQKLLRQLNGRLNLSYRTDFKIPMEVMHPSQMEKSYTAFAIQVMLQNVFLVFRSNFSSTGWNETIVESLLDELHQQTELLEIILKEKQEERLTWVTSTTTLGLKSYYWRVQRYLKDKKYNSYAWMVVRAEVFRNFSIILRLNRNFQNGDDDDKGPQKSQRSQDENPVVHHHHHH
% mean maximal weight loss (EAE in Lewis rats [1]; [3]): 3.8 ± 2.0% | Incidence of severe EAE (EAE in Lewis rats [1]; [3]): 1 of 6 | Mean # days with severe EAE (EAE in Lewis rats [1]; [3]): 0.1 ± 0.2 days | Mean cum. score (EAE in Lewis rats [1]; [3]): 3.4 ± 2.1 | Mean maximal score (EAE in Lewis rats [1]; [3]): 0.7 ± 0.6 | Median cum. score (EAE in Lewis rats [1]; [3]): 3.5 | Median maximal score (EAE in Lewis rats [1]; [3]): 0.5 | % mean maximal weight loss (EAE in Lewis rats [1]; [4]): 6.4 ± 5.0% | Incidence of severe EAE (EAE in Lewis rats [1]; [4]): 1 of 5 | Mean # days with severe EAE (EAE in Lewis rats [1]; [4]): 0.1 ± 0.2 days | Mean cum. score (EAE in Lewis rats [1]; [4]): 2.7 ± 1.5 | Mean maximal score (EAE in Lewis rats [1]; [4]): 0.7 ± 0.8 | Median cum. score (EAE in Lewis rats [1]; [4]): 2.3 | Median maximal score (EAE in Lewis rats [1]; [4]): 0.3 | % mean maximal weight loss (EAE in Lewis rats [1]; [5]): 5.0 ± 3.7% | Incidence of severe EAE (EAE in Lewis rats [1]; [5]): 2 of 11 | Mean # days with severe EAE (EAE in Lewis rats [1]; [5]): 0.1 ± 0.2 days | Mean cum. score (EAE in Lewis rats [1]; [5]): 3.1 ± 1.8 | Mean maximal score (EAE in Lewis rats [1]; [5]): 0.7 ± 0.7 | Median cum. score (EAE in Lewis rats [1]; [5]): 2.8 | Median maximal score (EAE in Lewis rats [1]; [5]): 0.5 | Incidence of severe EAE (EAE in Lewis rats [1]; [6]): 0 of 5 | Mean # days with severe EAE (A-P) (EAE in Lewis rats [1]; [6]): 0.3 ± 0.7 days | Mean cum. score (EAE in Lewis rats [1]; [7]): 1.7 ± 0.9 | Mean maximal score (EAE in Lewis rats [1]; [7]): 0.4 ± 0.1 | Median cum. score (EAE in Lewis rats [1]; [7]): 1.8 | Median maximal score (EAE in Lewis rats [1]; [7]): 0.3 | Incidence of severe EAE (EAE in Lewis rats [1]; [8]): 1 of 6 | Mean # days with severe EAE (A-P) (EAE in Lewis rats [1]; [8]): 0.1 ± 0.2 days | Mean cum. score (EAE in Lewis rats [1]; [9]): 1.0 ± 0.7 | Mean maximal score (EAE in Lewis rats [1]; [9]): 0.6 ± 0.7 | Median cum. score (EAE in Lewis rats [1]; [9]): 0.8 | Median maximal score (EAE in Lewis rats [1]; [9]): 0.4 | Incidence of severe EAE (EAE in Lewis rats [1]; [10]): 0 of 7 | Mean # days with severe EAE (A-P) (EAE in Lewis rats [1]; [10]): 0.0 ± 0.0 days | Mean cum. score (EAE in Lewis rats [1]; [11]): 1.7 ± 0.6 | Mean maximal score (EAE in Lewis rats [1]; [11]): 0.4 ± 0.1 | Median cum. score (EAE in Lewis rats [1]; [11]): 1.8 | Median maximal score (EAE in Lewis rats [1]; [11]): 0.3 | Mean cum. score (EAE in Lewis rats [1]; [12]): 1.4 ± 0.8 | Mean maximal score (EAE in Lewis rats [1]; [12]): 0.4 ± 0.4 | Median cum. score (EAE in Lewis rats [1]; [12]): 1.4 | Median maximal score (EAE in Lewis rats [1]; [12]): 0.3 | Incidence of severe EAE (EAE in Lewis rats [1]; [13]): 1 of 18 | Mean # days with severe EAE (A-P) (EAE in Lewis rats [1]; [13]): 0.1 ± 0.4 days | EAE-associated weight loss, mean (EAE in Lewis rats [1]; experiment 1 of Table 7): 9.7% | EAE-associated weight loss, mean (EAE in Lewis rats [1]; experiment 2 of Table 7): 8.7% | EAE-associated weight loss, mean (EAE in Lewis rats [1]; experiment 3 of Table 7): 8.5% | Incidence of severe EAE (EAE in Lewis rats [2]; [14]): 4 of 9 | Mean # days with severe EAE (EAE in Lewis rats [2]; [14]): 1.0 ± 1.3 days | Incidence of EAE (EAE in Lewis rats [2]; [15]): 9 of 9 | Mean cumulative score (EAE in Lewis rats [2]; [15]): 3.4 ± 2.7 | Mean maximal score (EAE in Lewis rats [2]; [15]): 1.4 ± 0.9 | Median cumulative score (EAE in Lewis rats [2]; [15]): 2.5 | Median maximal score (EAE in Lewis rats [2]; [15]): 1.0 | Incidence of EAE (EAE in Lewis rats [2]; [16]): 8 of 8 | Incidence of severe EAE (EAE in Lewis rats [2]; [16]): 4 of 8 | Mean # days with severe EAE (EAE in Lewis rats [2]; [16]): 0.8 ± 1.0 days | Mean cumulative score (EAE in Lewis rats [2]; [16]): 7.0 ± 5.3 | Mean maximal score (EAE in Lewis rats [2]; [16]): 1.5 ± 0.9 | Median cumulative score (EAE in Lewis rats [2]; [16]): 5.9 | Median maximal score (EAE in Lewis rats [2]; [16]): 1.5 | Mean # days with severe EAE (EAE in Lewis rats [2]; Table 4 Exp. 1, HEK293-derived, 1 nmole days −21, −14, −7, challenge day 0): 0.6 ± 1.3 days | Incidence of severe EAE (EAE in Lewis rats [2]; Table 4 Exp. 1, HEK293-derived, 1 nmole days −21, −14, −7, challenge day 0, severe = partial or full hindlimb paralysis): 1 of 4 | Incidence of EAE (EAE in Lewis rats [2]; [17]): 4 of 4 | Mean cumulative score (EAE in Lewis rats [2]; [17]): 6.3 ± 6.7 | Mean maximal score (EAE in Lewis rats [2]; [17]): 1.3 ± 1.2 | Median cumulative score (EAE in Lewis rats [2]; [17]): 3.9 | Median maximal score (EAE in Lewis rats [2]; [17]): 1.0 | Mean # days with severe EAE (EAE in Lewis rats [2]; Table 4 Exp. 2, HEK293-derived, 1 nmole days −21, −14, −7, challenge day 0): 1.0 ± 0.7 days | Incidence of severe EAE (EAE in Lewis rats [2]; Table 4 Exp. 2, HEK293-derived, 1 nmole days −21, −14, −7, challenge day 0, severe = partial or full hindlimb paralysis): 3 of 4 | Incidence of EAE (EAE in Lewis rats [2]; [18]): 4 of 4 | Mean cumulative score (EAE in Lewis rats [2]; [18]): 7.8 ± 4.3 | Mean maximal score (EAE in Lewis rats [2]; [18]): 1.6 ± 0.8 | Median cumulative score (EAE in Lewis rats [2]; [18]): 8.9 | Median maximal score (EAE in Lewis rats [2]; [18]): 2.0 | % mean maximal weight loss (EAE in Lewis rats [2]; [19]): 12.6 ± 3.6% | Incidence of EAE (EAE in Lewis rats [2]; [19]): 14 of 14 | Incidence of severe EAE (EAE in Lewis rats [2]; [19]): 7 of 14 | Mean # days with severe EAE (EAE in Lewis rats [2]; [19]): 1.0 ± 1.2 days | Mean cum. score (EAE in Lewis rats [2]; [19]): 7.6 ± 6.2 | Mean maximal score (EAE in Lewis rats [2]; [19]): 1.5 ± 1.1 | Median cum. score (EAE in Lewis rats [2]; [19]): 5.5 | Median maximal score (EAE in Lewis rats [2]; [19]): 1.5 | % mean maximal weight loss (EAE in Lewis rats [2]; [20]): 14.8 ± 1.9% | Incidence of EAE (EAE in Lewis rats [2]; [20]): 7 of 7 | Incidence of severe EAE (EAE in Lewis rats [2]; [20]): 4 of 7 | Mean # days with severe EAE (EAE in Lewis rats [2]; [20]): 1.1 ± 1.2 days | Mean cum. score (EAE in Lewis rats [2]; [20]): 8.0 ± 6.3 | Mean maximal score (EAE in Lewis rats [2]; [20]): 1.5 ± 1.0 | Median cum. score (EAE in Lewis rats [2]; [20]): 7.0 | Median maximal score (EAE in Lewis rats [2]; [20]): 2.0 | % mean maximal weight loss (EAE in Lewis rats [2]; [21]): 10.5 ± 3.6% | Incidence of EAE (EAE in Lewis rats [2]; [21]): 7 of 7 | Incidence of severe EAE (EAE in Lewis rats [2]; [21]): 3 of 7 | Mean # days with severe EAE (EAE in Lewis rats [2]; [21]): 0.9 ± 1.2 days | Mean cum. score (EAE in Lewis rats [2]; [21]): 7.2 ± 6.4 | Mean maximal score (EAE in Lewis rats [2]; [21]): 1.5 ± 1.4 | Median cum. score (EAE in Lewis rats [2]; [21]): 3.0 | Median maximal score (EAE in Lewis rats [2]; [21]): 0.5 | day of disease onset (EAE in Lewis rats [2]; baculovirus-derived, pretreatment days −21, −14, −7 (not shown)): did not significantly modulate

— patent US10363306B2, “Cytokines and neuroantigens for treatment of immune disorders” (East Carolina University, priority 2009, dated 2019)
